experiment: soluble on expression in E. coli; label from the status in PepcDB or PDB records

Question: Which “soluble on expression in E. coli” value does the source give for “MGSDKIHHHHHHMTYKPKYDNLMENPKIRRWFENLKAKSILTATVYRRTLGYYCELEKTTPEQLLTDMEKLEFRDNFLDFVRRLEKEGKAGSYIVRYKKVLRSWAKFNGIDIKLDVNIANENESPTLDNERVPSKEELSRLLRKATSRGRVSIPIMAFSGFRPETLGNYEGTDGLRLGDIKELKISDEIEFTKIPATIMVKTRLSKARNQYFSFIGEEGITYIKEYLEERKKNGEELTYESPLLQFDVRGTKKNDFMRTMLVTRDIREAITTAGLKMRPYVLRAYFSTALDIAESKGLISHPWRQFIMGHKGDIEARYSTNKRLPPDMIEEMRESYRKCLKFLETRISDVSEDNAKLFLQQQLLSAVGYKQEEIDKLDLSSVSNEDFQQLLRDKVAGAMSDNGAKQKVIPVNEIEQYISDGYDFEAVLPNGKAVMRLRF” here?
Answer: not soluble

Question: Which “soluble on expression in E. coli” value does the source give for “MSRSSLVDPSFELSDPCPDIHALFIQFDARFFGGSLACCEVKWSPRMYACAGICSYEIRGGRGGLCSIRLSKPLLTLRPRSDLVETLLHEMIHAYLFVKERNRDRDGHGPQFQAHMHRINQAGGTNITIYHSFHDEVRLYKQHWWRCSGPCRDRRPFFGYVKRSCNRAPGPNDRWWSQHQQSCGGNFLKVKEPEGYGQGKGSKRTNDKNKSGGPALKKTITPPRVTLDDFFKKDGKNSSDNSTSKSPTKPSTSLFTGSGQKLGGSSSTSSLLNSYPKATQNSGGNRLGGTSGGVSRLLPPVNFTSPSSAPVAEQVIDLGDSDDDDFQDMDDDALEISFVASDNSVICPSCNTEVMENLIHGHLDYCLG” here?
Answer: not soluble

Question: For “MREILNHFDRPLNKKNSFQKIQNLSCQTHTKRFYREVKISCEEGGFSVLLDGCPVKTPAKRHFCLPTEVFAAFVAEEFENQKQVIDPAKMPMTRLVNTVIDGIADNMQAVFEDLLRFVACDMIFYRAQTPKELVQRQCEQWDPLLDWAEEKLGARFHVTEGLMHIEQSRESIQAVSNYLRKVESPYMLAALHTITTLTGSALIALAFSEGKIDSEHAWKIAHLDENWMMEQWGIDEETLARSSHKKSEFDAAGTIITTCLLEHHHHHH”, which “soluble on expression in E. coli” value is on record?
Answer: not soluble

Question: With “MGSDKIHHHHHHAQTCGATYITEFQYDLKKRTNWCNLLRLDAYVPIGTKGILEFASIHVYKTRPERIINDLQTFSNIEEDNLPCAIAVLGYTRLVGNVTLFAGIRNLNEDYFTTPCMSLFTNSSCGIFPTLSANYPIANYPLAALCLDYKMTLGRFGIESSLYNGKGYNGWSKGKHPFTFNPRKDGVFSITEINYQTEYGKCFGGFSLHTNGDMPDVAGEWKTREREKKVSPKMTFAWWGYAERKLWSRVRQEVNLLVQYTRTSSVFSECRNYMGAGVTWIYVPGGQKRHEAGLFLSAAQFKSCNEVAGEVTYRYSFNRDTYIQPAIHLIKNGGGLHEVFLIRMGYILNGGRVR” as the sequence, how does the “soluble on expression in E. coli” value read?
Answer: not soluble

Question: For “MGGGERYNIPAPQSRNVSKNQQQLNRQKTKEQNSQMKIVHKKKERGHGYNSSAAAWQAMQNGGKNKNFPNNQSWNSSLSGPRLLFKSQANQNYAGAKFSEPPSPSVLPKPPSHWVPVSFNPSDKEIMTFQLKTLLKVQV”, which “soluble on expression in E. coli” value is on record?
Answer: not soluble

Question: For “MIKINISQNFLVAKGHALFAEKGKDIVCAAISGIIFGGVAWFEPDKIEFTENKLVPSIALKLIDPTPNVAVAFSVITVQLKAIANSYPNHIVINEESYE”, which “soluble on expression in E. coli” value is on record?
Answer: soluble

Question: With “MKAITLLSSGLDSVAALAIAAESLEIEMAITFDYGQRAGQREMEYSEKVCEHFGIEQRIIKLDWLGEITHTSLVNRDEEVPSLSFEDIDENSPSMITEYSAKAVWVPNRNGVMLNIAGSFAESRGCDYIVVGFNGEEAGTFPDNSRDYIQAVDNAFSYSTQNGVKVLAPLAEMGKTEIVKKALEAEAPLEYSWSCYHGGEIPCGKCESCVRRARAFKNIGIKDPLLERLGI” as the sequence, how does the “soluble on expression in E. coli” value read?
Answer: not soluble

Question: With “MAHHHHHHMDYNVSTAAVVLDCGSFHSRAGFGGEKGPRLDVPTLVGYPRHRSIAMAAGMNEQEVGEEALLKQGILDVHHPIRNGFINDWGDVEKLWSHLFFNELRVSPETHCFLLTQPVNTPAAQRERTLEIMMETFHAHSLYLGTSQVLSLYSYGLTTGLVVDSGKDVTHAVPIHEGYALVRHVTQSPVAGAALTRYLGGLLREQGYALGTATEQELLNGAKEDLCYVRPRAHVQRGAVSDIYTPASGTSAGVSPAAASAASRRSTQLTGGIKGSADSASSATATTAVTAKESFMESAAEKHLDVDGGLTPTAVMGATEDFLLPDGQRIPLAAERYDTAEVLFNYSLLALMDSNGKDSSTYEPRCKVRTDMGDLFRPSFEKGISWLPFAAVNNCEAALRPQLYANMVLAGGSTSFPGLKARLESEVRQLYRESHPSEAVVPIQVRDMPCRTYSTWLGGSMLAQTAVFQHLVVSRKEYEEEGARVIHYKSL” as the sequence, how does the “soluble on expression in E. coli” value read?
Answer: not soluble

Question: For “MGSDKIHHHHHHMLTTLAINNYRSLRDIRLPLGRLNLVTGANGSGKSNLYKALRLLAQTAQGGVVNALAQEGGLDSCFWAGPENLTKGMLSGDTEITPTVRQQTKRLKLGFAGDEFSYLIELGLPKPDNTTLFGLDPQIKREAIWVGNKYRPAAVLVERRGPMVKGRAQQRGQDGWQSLNQHMQHGDSIFTELSDPSRTPEVLRLRDSIRAWRFYDHFRSDSEAPARQPQLGTRTPVLHHDGRDLASAIQTIFEIGDRESFDEAVSDAFPGAHVTIGYQAGGLLSVNFHQQGLLRPLNAQELSDGTLRYLLLIAALLTPRPPELMVLNEPETSLHPDLLPALARLIAKATKVCQLWVVSHANRLINALNEFEQCQLIELDKQLGQTRIVGQDLLSTPGWNWQQKAQG”, which “soluble on expression in E. coli” value is on record?
Answer: not soluble

Question: Which “soluble on expression in E. coli” value does the source give for “MSLVETPKCTCGNHGVMNKKEKIIFACSGASNVGELSNAAAVRLTKEGFGNKACTASLAIKTPSVMERVENAGEIVVIDGCPVSCAKRIADNSGVKVDQYIIITELGINKISDMDILDEDITKTVSAVKDGKSVCLDRKRENHKGSGCNCGCESKEGHHHHHH” here?
Answer: not soluble

Question: For “MGSDKIHHHHHHMKEVVKLVLLGERQNSLNLSLYFNKYPPTIIYPEVLEDRNKKLASPSGSQRKISLLVLNQGVLQFNKIKETIEKSLPIETKVKLPQKAYELYKKYYQDYTDMLNSLHAITGKFKTQSRLVVGLGDESVYETSIRLLRNYGVPYIPGSAIKGVTRHLTYYVLAEFINEGNDFYKRAKTVQDAFMKGDPKEILSNAKVPERCSRLCKEFLRIFGEKKVPEIIDELIRIFGTQKKEGEVVFFDAIPIAEEIADKPILELDIMNPHYGPYYQSGEKNVPPPGDWYDPIPIFFLTVPKDVPFLVAVGGRDRELTEKAFSLVKLALRDLGVGAKTSLGYGRLVEYV”, which “soluble on expression in E. coli” value is on record?
Answer: not soluble

Question: With “TSSLHPTRGKLLKRFAQIGPYIREQQCQESQFFFDCLAVCVNKKVTPEKREFWGWWMELERNGEQLIYYYQVGLFDKNGDWVNQVISKKDVIESIHETLIRFHDFLQAAVSELEMTLVPDEKMSNFPLPL” as the sequence, how does the “soluble on expression in E. coli” value read?
Answer: soluble

Question: For “MTRACNLYVFKNKYVSFNLLDSPNSNPKLLKISLPFNFMDEFEGLLKAVGSAPWYKLIGMVPKLQGDRVVVEMEIDRSKHLQALGTTHGGAIASVLDSAIGLNVNREVVKMGKTAVTAQLNIHYIRPVTEGKIVGVGMPMHIGSKVTVGYGEVRNEEGELVAAGTATFYIIDRRFRD”, which “soluble on expression in E. coli” value is on record?
Answer: soluble

Question: For “MSLSQLEPRQQAFRNAMAHLSAAVNVITSNGPAGRCGITATAVCSVTDSPPTLMLCINRNSEMNTVFKANGRLCVNVLSGEHEEVARHFAGMTEVPMERRFALHDWREGLAGLPVLHGALANLQGRIAEVQEIGTHSVLLLELEDIQVLEQGDGLVYFSRSFHRLQCPEGGSHHHHHH”, which “soluble on expression in E. coli” value is on record?
Answer: soluble

Question: With “MIKKLDVVAAIIECDGKILLAQRPAHADQAGLWEFAGGKVEPGETQPQALIRELREELGIDATPGVYIASHQRDVSGRRIHLHAWHVPAFNGLIRALEHQALAWCTPEEALEYPLAPADIPLLQAFIALRDARLTDSC” as the sequence, how does the “soluble on expression in E. coli” value read?
Answer: not soluble

Question: With “GSHMAQQNILSVHILNQQTGKPAADVTVTLEKKADNGWLQLNTAKTDKDGRIKALWPEQTATTGDYRVVFKTGDYFKKQNLESFFPEIPVEFHINKVNEHYHVPLLLSQYGYSTYRGS” as the sequence, how does the “soluble on expression in E. coli” value read?
Answer: soluble

Question: With “MSLAKPTDIRIRDVRISAEHINYRTPIKFGGRVVNDVTLLNVALDVETADGRRGSGFGSMPMGNVWAWPTSTTSGDATLQAMVDIGTAIAEAAPQLDLSGHPLELTAAAHSQYGSIASTIAHKANITEAVPKLATLVAASPVEAAIHDAYGKALGLNSYNVLGADFANTDLASYLSPEFAGEYLDRYTLRTPQPQMPLYHLIGALDPLDQDELQNPVGDGLPETLGDWITADGLTHLKIKLNGDNLDWDVARVAKIDAVAIDAQAKRGCKAWQYSLDFNERCPNVQYILDFLAKLSESSPEALDRVQYIEQPTSRDLRANPENRMHAAAKIKPVVIDESLIDYESLLLAREQGYSGVALKACKGQSEALLMGAAAQKFGMFLCVQDLTCPGASFLHSASLAARMPTIAAIEGNGRQYCPAGNAEWAKRYPSMFDITQGYVGTAVLTEPGLGYEGHHHHHH” as the sequence, how does the “soluble on expression in E. coli” value read?
Answer: not soluble

Question: With “EKLTLAEKVWRDHVVSKGENGEPDLLYIDLQLLHEVTSPQAFDGLRMTGRKLRHPELHLATEDHNVPTEGIKTGSLLEINDKISRLQVSTLRDNCEEFGVRLHPMGDVRQGIVHTVGPQLGATQPGMTIVCGDSHTSTHGAFGSMAFGIGTSEVEHVMATQTLPLKPFKT” as the sequence, how does the “soluble on expression in E. coli” value read?
Answer: not soluble

Question: With “MSLTKPIIGITANVRPNPAHEDIKWSYAPSGFVEGVQKAGGLAILLPVSDPLEAKTYISMIDKLILIGGQNIDPKFYNEENHACEDDFFLERDLFEMALIEEATKQKKPIFSICRGTQLMNVALGGSLHQDIKRHWQDKPSDYLYHEIIIDKNSKLAEIYGLETSINSFHHQSIKHLASDLRVIARDPEDNTVEAIESNTPDLRYLGVQWHPELLLNKREEDLKLFEYVVDELEGHHHHHH” as the sequence, how does the “soluble on expression in E. coli” value read?
Answer: soluble

Question: With “MNKLQSYFIASVLYVMTPHAFAQGTVTIYLPGEQQTLSVGPVENVVQLVTQPQLRDRLWWPGALLTDSAAKAKALKDYQHVMAQLASWEAEADDDVAATIKSVRQQLLNLNITGRLPVKLDPDFVRVDENSNPPLVGDYTLYTVQRPVTITLLGAVSGAGQLPWQAGRSVTDYLQDHPRLAGADKNNVMVITPEGETVVAPVALWNKRHVEPPPGSQLWLGFSAHVLPEKYADLNDQIVSVLTQRVPD” as the sequence, how does the “soluble on expression in E. coli” value read?
Answer: not soluble

Question: For “MIATLLSSLLLTGPISAGAETQGLLPAQDLLPDIGTSAGATLSIDQEMAMGDFYVRQMRASAPLIYDPLLTQYINTLGNRLVANANSVRTPFHFYLVNNDQINAFAFFGGNVVLHSALFRYTDNESELASVLAHEISHVTQRHLARAMEEQQRLAPLTWVGVLGSILLTMASPQAGMAGLSGTLAGAQQGIISFTQGNEQEADRIGIQVLQRSGFDPQAMPNFLQKLADQSRYVSKPPEMLLTHPLPDSRLSDARNRANQMKPHPTASSQDYLFAKMRILGMYGADENSLTPELLDKLSKGTVREQLAAKYGQAVQLYQAKKYDEARNLLQPLLAQQPGNIWFLDLMTDIDLGQNKSAAAIARLQNAMVKQNDEPVLQLNLANAYVQGRQPAAAIKLLHRYTFAYPNDPNGWDLLAQATATQGLRDQELAARAESLALSGKLTQAIGLLSDASARVKLGSLEQARYDARIDQLRRLNERFRKYQKS”, which “soluble on expression in E. coli” value is on record?
Answer: not soluble

Question: Which “soluble on expression in E. coli” value does the source give for “MPEEDLVELKFRLYDGSDVGPFQYSPTATVSMLKERIVSEWPKDKKIVPKSASDIKLINAGKILENGKTVAQCKAPFDDLPKSVITMHVVVQLSPTKARPEKKIEKEEAPQRSFCSCTIM” here?
Answer: soluble

Question: With “MKPTTISLLQKYKQEKKRFATITAYDYSFAKLFADEGLNVMLVGDSLGMTVQGHDSTLPVTVADIAYHTAAVRRGAPNCLLLADLPFMAYATPEQAFENAATVMRAGANMVKIEGGEWLVETVQMLTERAVPVCGHLGLTPQSVNIFGGYKVQGRGDEAGDQLLSDALALEAAGAQLLVLECVPVELAKRITEALAIPVIGIGAGNVTDGQILVMHDAFGITGGHIPKFAKNFLAETGDIRAAVRQYMAEVESGVYPGEEHSFH” as the sequence, how does the “soluble on expression in E. coli” value read?
Answer: soluble
